Results reported in PMC11387744 (Communications Biology, 2024).

B1: BCOR^N1591/PCGF1^RAWUL dimer (complex)
chain 1: DDDASGTWDFYGSSVCEPDDESGYDVLANPPGPEDQDDDDDAYSDVFEFEFSETPLLPCYNIQVSVAQGPRNWLLLSDVLKKLKMSSRIFRCNFPNVEIVTIAEAEFYRQVSASLLFSCSKDLEAFNPESKELLDLVEFTNEIQTLLGSSVEWLHPSDLASDNYW
chain 2: LPFSSFDHSKAHYYRYDEQLNLCLERLSSGKDKNKSVLQNKYVRCSVRAEVRHLRRVLCHRLMLNPQHVQLLFDNEVLPDHMTMKQIWLSRWFGKPSPLLLQYSVK
B2: BCOR^N1594/PCGF1^RAWUL dimer (complex)
chain 1: ASGTWDFYGSSVCEPDDESGYDVLANPPGPEDQDDDDDAYSDVFEFEFSETPLLPCYNIQVSVAQGPRNWLLLSDVLKKLKMSSRIFRCNFPNVEIVTIAEAEFYRQVSASLLFSCSKDLEAFNPESKELLDLVEFTNEIQTLLGSSVEWLHPSDLASDNYW
chain 2: B1 chain 2
B3: BCOR^N1607/PCGF1^RAWUL dimer (complex)
chain 1: EPDDESGYDVLANPPGPEDQDDDDDAYSDVFEFEFSETPLLPCYNIQVSVAQGPRNWLLLSDVLKKLKMSSRIFRCNFPNVEIVTIAEAEFYRQVSASLLFSCSKDLEAFNPESKELLDLVEFTNEIQTLLGSSVEWLHPSDLASDNYW
chain 2: B1 chain 2
B4: BCOR^N1612/PCGF1^RAWUL dimer (complex)
chain 1: SGYDVLANPPGPEDQDDDDDAYSDVFEFEFSETPLLPCYNIQVSVAQGPRNWLLLSDVLKKLKMSSRIFRCNFPNVEIVTIAEAEFYRQVSASLLFSCSKDLEAFNPESKELLDLVEFTNEIQTLLGSSVEWLHPSDLASDNYW
chain 2: B1 chain 2
B5: BCOR^N1624/PCGF1^RAWUL dimer (complex)
chain 1: EDQDDDDDAYSDVFEFEFSETPLLPCYNIQVSVAQGPRNWLLLSDVLKKLKMSSRIFRCNFPNVEIVTIAEAEFYRQVSASLLFSCSKDLEAFNPESKELLDLVEFTNEIQTLLGSSVEWLHPSDLASDNYW
chain 2: B1 chain 2
B6: BCOR^ANK-linker (residues 1461-1635) (domain or fragment, UniProt Q6W2J9 1461-1635, looked up)
chain: NAGETLLQRAARLGYEEVVLYCLENKICDVNHRDNAGYCALHEACARGWLNIVRHLLEYGADVNCSAQDGTRPLHDAVENDHLEIVRLLLSYGADPTLATYSGRTIMKMTHSELMEKFLTDYLNDLQGRNDDDASGTWDFYGSSVCEPDDESGYDVLANPPGPEDQDDDDDAYSD

Molecular target: T1, KDM2B^F-box-LRRs/SKP1 dimer (UniProt Q8NHM5 1059-1336; P63208 2-163)
Assay: ITC

T1 sequence (Q8NHM5 1059-1336, chain 1 of 2): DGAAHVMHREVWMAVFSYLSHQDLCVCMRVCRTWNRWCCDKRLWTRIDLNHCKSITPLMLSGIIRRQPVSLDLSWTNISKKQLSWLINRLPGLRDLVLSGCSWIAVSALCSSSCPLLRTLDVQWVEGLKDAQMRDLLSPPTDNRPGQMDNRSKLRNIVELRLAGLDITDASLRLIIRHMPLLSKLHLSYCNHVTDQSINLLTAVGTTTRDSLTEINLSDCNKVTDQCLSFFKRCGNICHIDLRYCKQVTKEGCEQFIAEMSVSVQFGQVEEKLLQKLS
T1 sequence (P63208 2-163, chain 2 of 2): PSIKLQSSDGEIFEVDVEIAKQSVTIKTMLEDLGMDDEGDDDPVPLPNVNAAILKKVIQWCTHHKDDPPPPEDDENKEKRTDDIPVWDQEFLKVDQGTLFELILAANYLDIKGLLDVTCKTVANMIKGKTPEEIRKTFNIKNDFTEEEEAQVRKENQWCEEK

Binder	Kd [nM]
B1	240
B2	250
B3	270
B4	850
B5	5930

Molecular target: T1, KDM2B^F-box-LRRs/SKP1 dimer
Assay: ITC
Remark: another data set of the same source

Binder	Kd [nM]
B6	6350
